Assays:
[1] = target: T1, Human IL-17A重组蛋白 (IL-17A-His) (human, UniProt Q16552 24-155, biotinylated (NHS-biotin) in the ELISA of paragraph 263); assay: BLI (ForteBio OCTET R2), IL-17A-His on the sensor, antibody 50-3.13 nM, 25℃
T1 construct: also called IL-17A抗原蛋白; IL-17抗原
T1 sequence: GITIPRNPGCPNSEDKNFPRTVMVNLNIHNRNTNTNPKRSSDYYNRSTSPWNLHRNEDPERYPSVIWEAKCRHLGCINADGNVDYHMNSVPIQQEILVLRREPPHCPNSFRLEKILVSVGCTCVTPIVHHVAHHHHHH

[2] = target: T1, Human IL-17A重组蛋白 (IL-17A-His); assay: ELISA, antibody coated at 2 ug/mL, Biotin-IL-17A-His titrated from 10 ug/mL, HRP-Streptavidin
[3] = target: T1, Human IL-17A重组蛋白 (IL-17A-His); assay: cell-based or functional assay

B1: Ixekizumab (antibody, human IgG4 S228P, kappa, V domains shown)
VH: QVQLVQSGAEVKKPGSSVKVSCKASGYSFTDYHIHWVRQAPGQGLEWMGVINPMYGTTDYNQRFKGRVTITADESTSTAYMELSSLRSEDTAVYYCARYDYFTGTGVYWGQGTLVTVSS
VL: DIVMTQTPLSLSVTPGQPASISCRSSRSLVHSRGNTYLHWYLQKPGQSPQLLIYKVSNRFIGVPDRFSGSGSGTDFTLKISRVEAEDVGVYYCSQSTHLPFTFGQGTKLEIKR
notes: Made in house in 293F cells from synthesised variable regions cloned into hIgG4 and hIgKc vectors; Protein A purified; also called 阳性对照抗体Ixekizumab; 阳性抗体
[1]
  Kd: 0.391 nM
[2]
  EC50: 10.1 µg/mL
[3]
  IC50 of blocking Human IL-17A activation of 293F-IL-17RA-IL-17Rc-ACT1-NFκB-Luc (luciferase activity): 1.36 µg/mL

From CN117843805A (BEILAI PHARMACEUTICAL CO LTD, dated 2024)
